Data on one substance can be found in patent publication US20020115216A1.

This test addresses asialoglycoprotein receptor (UniProt P34927). The test is described as follows: cell-based or functional assay.
Sequence of UniProt P34927 (P34927 whole entry, chain 1 of 2): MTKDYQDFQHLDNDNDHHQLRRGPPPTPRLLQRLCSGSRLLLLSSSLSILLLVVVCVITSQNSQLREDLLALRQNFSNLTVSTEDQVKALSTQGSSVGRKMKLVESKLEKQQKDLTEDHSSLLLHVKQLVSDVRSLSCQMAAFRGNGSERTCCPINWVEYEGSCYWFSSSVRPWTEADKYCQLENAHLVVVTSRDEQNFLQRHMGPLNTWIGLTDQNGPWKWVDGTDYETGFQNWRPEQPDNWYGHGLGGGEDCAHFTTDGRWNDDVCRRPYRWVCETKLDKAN
Sequence of UniProt P34927 (P24721 whole entry, chain 2 of 2, further chain): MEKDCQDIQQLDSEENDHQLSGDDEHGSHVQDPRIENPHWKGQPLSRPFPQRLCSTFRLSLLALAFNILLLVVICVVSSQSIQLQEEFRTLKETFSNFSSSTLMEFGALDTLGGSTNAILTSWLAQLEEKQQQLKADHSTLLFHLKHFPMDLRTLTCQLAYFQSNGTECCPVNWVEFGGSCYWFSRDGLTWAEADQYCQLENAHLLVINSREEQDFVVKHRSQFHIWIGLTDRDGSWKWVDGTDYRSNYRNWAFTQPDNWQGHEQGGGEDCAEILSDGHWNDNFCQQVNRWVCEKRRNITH

For the substance “asialofetuin (from UniProt P12763 19-359) (ligand)”, the inhibition of uptake/expression of the cis pT/GFP/SB in the liver (confocal microscopy of GFP, mice coadministered asialofetuin) was > 80%.
